This is an account of results in US20240109963A1 (AB THERAPEUTICS, published 2024).

Assay [1] addresses T1, full-length human Claudin 18.2 on MIA PaCa-2 cells (MIA PaCa-2+ Claudin 18.2) (human, UniProt P56856-2 1-261).
T1 sequence (looked up): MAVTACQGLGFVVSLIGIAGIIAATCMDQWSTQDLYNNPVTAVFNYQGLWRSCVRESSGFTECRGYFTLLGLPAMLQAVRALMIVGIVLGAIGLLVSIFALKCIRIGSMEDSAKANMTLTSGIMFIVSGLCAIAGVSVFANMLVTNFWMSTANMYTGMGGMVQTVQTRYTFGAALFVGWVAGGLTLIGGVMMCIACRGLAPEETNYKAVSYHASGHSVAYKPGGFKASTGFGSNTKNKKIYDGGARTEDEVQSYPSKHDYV
Description: cell-based or functional assay.

The next assay concerns the target T2, CD3 on Jurkat cells.
T2 construct: whole, on cells; also called CD3+ Jurkat cells
The assay can be described thus: flow cytometry on Jurkat cells, CD3 binding (T cell) (summary table).

Assay [2] addresses T3, Claudin 18.2 on CHO cells (CHO+ Claudin 18.2) (UniProt P56856-2 1-261).
T3 construct: whole, on cells; also called CHO_18.2
T3 sequence (looked up): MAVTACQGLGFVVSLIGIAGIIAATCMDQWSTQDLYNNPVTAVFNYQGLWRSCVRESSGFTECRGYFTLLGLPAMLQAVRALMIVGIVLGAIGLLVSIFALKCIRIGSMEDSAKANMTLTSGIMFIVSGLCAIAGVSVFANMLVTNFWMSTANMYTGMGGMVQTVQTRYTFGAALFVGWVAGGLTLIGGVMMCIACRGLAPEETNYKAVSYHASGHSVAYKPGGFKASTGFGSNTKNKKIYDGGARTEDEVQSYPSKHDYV
The assay can be described thus: flow cytometry, unpurified supernatant on CHO+ Claudin 18.2 cells, FITC-positive cells. The method, then: To compare the half maximal effective concentration (EC50) of the lead BsAbs, 8.5×10⁴ cells/well of CHO+ Claudin 18.2 cells in 100 μl FACS buffer were seeded in a V-bottom 96-well plate. […] The final concentrations of the BsAbs were 10 μg/ml, 1 μg/ml, 100 ng/ml, 10 ng/ml, 1 ng/ml, 100 pg/ml, 10 pg/ml, and 1 pg/ml. After incubating the plate at RT for 45 minutes, the cells were washed twice with the FACS buffer and cell pellets were resuspended in 100 μl FACS buffer containing goat anti-human-FITC (1:200) for 30 minutes at RT in dark. Afterwards, the cells were washed twice with FACS buffer, and cell pellets were resuspended in 120 μl FACS buffer. The percentage of FITC-positive cells were analyzed by flow cytometry.
For orientation: Flow cytometry measures light scatter and fluorescence of single cells or particles in a stream.

T2 sequence (P07766 23-207, chain 1 of 3): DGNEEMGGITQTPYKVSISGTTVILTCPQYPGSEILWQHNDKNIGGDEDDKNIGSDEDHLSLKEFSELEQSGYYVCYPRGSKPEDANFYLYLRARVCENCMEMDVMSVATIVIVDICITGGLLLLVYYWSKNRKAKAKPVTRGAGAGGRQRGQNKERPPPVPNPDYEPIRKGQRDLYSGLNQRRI
T2 sequence (P09693 23-182, chain 2 of 3, further chain): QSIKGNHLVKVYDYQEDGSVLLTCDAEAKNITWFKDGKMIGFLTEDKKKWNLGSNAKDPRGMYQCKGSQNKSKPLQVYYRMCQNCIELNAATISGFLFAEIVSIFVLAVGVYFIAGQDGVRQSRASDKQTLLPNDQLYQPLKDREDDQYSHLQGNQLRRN
T2 sequence (P04234 22-171, chain 3 of 3, further chain): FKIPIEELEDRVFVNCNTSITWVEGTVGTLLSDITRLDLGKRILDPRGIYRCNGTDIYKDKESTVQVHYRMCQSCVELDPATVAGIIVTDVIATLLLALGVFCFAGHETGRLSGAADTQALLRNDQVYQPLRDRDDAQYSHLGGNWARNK

B1: Claudin 18.2-1B2/CD3 BsAb (BiSpecific-V1 structure) (bispecific antibody)
VHH-Fc: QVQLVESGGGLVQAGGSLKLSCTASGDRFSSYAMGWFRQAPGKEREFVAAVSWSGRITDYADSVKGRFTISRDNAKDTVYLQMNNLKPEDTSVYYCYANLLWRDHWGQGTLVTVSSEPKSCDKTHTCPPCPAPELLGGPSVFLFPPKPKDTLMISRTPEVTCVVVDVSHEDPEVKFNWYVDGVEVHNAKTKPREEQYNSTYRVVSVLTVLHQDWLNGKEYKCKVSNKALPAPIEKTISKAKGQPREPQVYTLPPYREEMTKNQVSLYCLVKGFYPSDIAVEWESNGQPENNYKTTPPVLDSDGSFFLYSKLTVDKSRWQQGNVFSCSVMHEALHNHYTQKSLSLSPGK
heavy: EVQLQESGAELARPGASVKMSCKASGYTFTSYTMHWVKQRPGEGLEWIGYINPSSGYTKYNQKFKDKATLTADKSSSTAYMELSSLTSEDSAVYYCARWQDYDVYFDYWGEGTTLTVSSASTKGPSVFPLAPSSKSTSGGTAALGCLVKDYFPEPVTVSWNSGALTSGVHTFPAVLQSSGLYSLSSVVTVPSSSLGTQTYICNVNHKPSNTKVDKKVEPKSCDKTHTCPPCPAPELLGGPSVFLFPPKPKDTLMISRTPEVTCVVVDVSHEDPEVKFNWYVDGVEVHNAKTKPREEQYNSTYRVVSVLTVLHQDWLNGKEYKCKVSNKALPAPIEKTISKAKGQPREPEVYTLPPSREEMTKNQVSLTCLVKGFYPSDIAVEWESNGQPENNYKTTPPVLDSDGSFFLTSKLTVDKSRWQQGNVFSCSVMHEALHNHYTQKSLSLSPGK
light: QIVLSQSPAILSASPGEKVTMTCRASSSVSYIHWFQQKPGSSPKPWIYATSNLASGVPVRFSGSGSGTSYSLTISRVEAEDAATYYCQQWTSNPPTFGGGTKLEIKRTVAAPSVFIFPPSDEQLKSGTASVVCLLNNFYPREAKVQWKVDNALQSGNSQESVTEQDSKDSTYSLSSTLTLSKADYEKHKVYACEVTHQGLSSPVTKSFNRGEC
Usually EC50 stands for the concentration giving half of the maximal effect. A lower EC50 goes with an effect from little substance. In the case of B1, the “T cell activation EC50 (CD69-positive cells)” value in assay [1] was 0.056 µg/mL. The molecule also yielded an EC50 in the assay with CD3 on Jurkat cells of 58.9 µg/mL.

B2: Claudin 18.2-4G1/CD3 BsAb (BiSpecific-V1 structure) (bispecific antibody)
VHH-Fc: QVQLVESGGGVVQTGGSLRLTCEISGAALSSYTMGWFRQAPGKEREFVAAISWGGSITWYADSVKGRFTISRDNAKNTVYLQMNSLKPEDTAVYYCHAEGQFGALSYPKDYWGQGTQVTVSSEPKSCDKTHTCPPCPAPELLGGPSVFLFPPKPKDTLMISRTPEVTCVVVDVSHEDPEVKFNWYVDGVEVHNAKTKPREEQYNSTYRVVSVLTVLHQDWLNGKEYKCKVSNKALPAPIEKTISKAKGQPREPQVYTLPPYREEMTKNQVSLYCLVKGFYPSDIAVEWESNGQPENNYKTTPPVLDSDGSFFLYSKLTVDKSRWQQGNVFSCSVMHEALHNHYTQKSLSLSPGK
heavy: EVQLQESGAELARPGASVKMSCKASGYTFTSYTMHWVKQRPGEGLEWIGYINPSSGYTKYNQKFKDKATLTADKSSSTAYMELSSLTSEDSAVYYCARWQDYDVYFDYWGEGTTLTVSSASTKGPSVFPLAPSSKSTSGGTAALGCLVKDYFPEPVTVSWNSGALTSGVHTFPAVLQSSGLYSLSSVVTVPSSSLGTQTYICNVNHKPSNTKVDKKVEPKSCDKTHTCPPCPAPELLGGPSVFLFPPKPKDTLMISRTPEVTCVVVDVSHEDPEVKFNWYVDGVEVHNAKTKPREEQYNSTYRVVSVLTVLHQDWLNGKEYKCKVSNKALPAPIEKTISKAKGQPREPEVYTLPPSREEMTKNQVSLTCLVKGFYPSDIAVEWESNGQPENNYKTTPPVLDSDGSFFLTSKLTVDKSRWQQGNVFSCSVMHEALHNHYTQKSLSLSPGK
light: QIVLSQSPAILSASPGEKVTMTCRASSSVSYIHWFQQKPGSSPKPWIYATSNLASGVPVRFSGSGSGTSYSLTISRVEAEDAATYYCQQWTSNPPTFGGGTKLEIKRTVAAPSVFIFPPSDEQLKSGTASVVCLLNNFYPREAKVQWKVDNALQSGNSQESVTEQDSKDSTYSLSSTLTLSKADYEKHKVYACEVTHQGLSSPVTKSFNRGEC
notes: tested as unpurified culture supernatant
Turning to B2, in assay [2], the EC50 is ~0.006 µg/mL.

B3: Claudin 18.2-3C2/CD3 BsAb (BiSpecific-V1 structure) (bispecific antibody)
VHH-Fc: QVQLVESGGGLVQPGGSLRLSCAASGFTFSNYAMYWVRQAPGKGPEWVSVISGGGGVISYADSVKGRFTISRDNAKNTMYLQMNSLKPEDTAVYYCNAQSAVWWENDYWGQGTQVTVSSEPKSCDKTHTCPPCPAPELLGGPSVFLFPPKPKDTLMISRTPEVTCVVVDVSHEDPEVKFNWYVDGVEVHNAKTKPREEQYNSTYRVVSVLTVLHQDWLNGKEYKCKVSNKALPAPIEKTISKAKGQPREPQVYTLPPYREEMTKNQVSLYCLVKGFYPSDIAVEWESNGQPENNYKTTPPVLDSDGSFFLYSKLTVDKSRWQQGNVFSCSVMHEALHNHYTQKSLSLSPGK
heavy: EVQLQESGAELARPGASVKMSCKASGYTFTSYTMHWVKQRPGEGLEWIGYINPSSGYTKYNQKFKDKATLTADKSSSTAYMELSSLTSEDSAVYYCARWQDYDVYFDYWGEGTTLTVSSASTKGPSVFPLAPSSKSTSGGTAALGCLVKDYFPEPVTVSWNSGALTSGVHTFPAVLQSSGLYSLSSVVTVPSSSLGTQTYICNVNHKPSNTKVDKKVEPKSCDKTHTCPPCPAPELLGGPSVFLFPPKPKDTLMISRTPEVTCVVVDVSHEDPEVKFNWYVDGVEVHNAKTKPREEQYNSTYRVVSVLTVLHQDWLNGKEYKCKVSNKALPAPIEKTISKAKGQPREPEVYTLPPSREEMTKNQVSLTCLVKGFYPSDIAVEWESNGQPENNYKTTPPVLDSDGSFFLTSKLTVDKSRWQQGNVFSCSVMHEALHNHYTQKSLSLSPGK
light: QIVLSQSPAILSASPGEKVTMTCRASSSVSYIHWFQQKPGSSPKPWIYATSNLASGVPVRFSGSGSGTSYSLTISRVEAEDAATYYCQQWTSNPPTFGGGTKLEIKRTVAAPSVFIFPPSDEQLKSGTASVVCLLNNFYPREAKVQWKVDNALQSGNSQESVTEQDSKDSTYSLSSTLTLSKADYEKHKVYACEVTHQGLSSPVTKSFNRGEC
notes: as for B2
For B3, in assay [2], the EC50 is ~0.013 µg/mL.
